# Measured values published in US20170189508A1.
# Molecular target: HLA-A*02 (human)
# Test: UV peptide exchange + b2m ELISA, exchange yield grade
binder,measurement,value
SLTEVSLPL [… (SEQ ID NO: 45)],peptide exchange yield,50 to 75%
